Where a chain is given by its changes, count along the chain named. Names and notes keep the numbering of the source. Where two headings read alike, the source gives them in different places.
B1: Cdc12-His6 (natural protein)
chain: MSAATATAAPVPPPVGISNLPNQRYKIVNEEGGTFTVMLCGESGLGKTTFINTLFQTVLKRADGQQHRQEPIRKTVEIDITRALLEEKHFELRVNVIDTPGFGDNVNNNKAWQPLVDFIDDQHDSYMRQEQQPYRTKKFDLRVHAVLYFIRPTGHGLKPIDIETMKRLSTRANLIPVIAKADTLTAQELQQFKSRIRQVIEAQEIRIFTPPLDADSKEDAKSGSNPDSAAVEHARQLIEAMPFAIVGSEKKFDNGQGTQVVARKYPWGLVEIENDSHCDFRKLRALLLRTYLLDLISTTQEMHYETYRRLRLEGHENTGEGNEDFTLPAIAPARKLSHNPRYKEEENALKKYFTDQVKAEEQRFRQWEQNIVNERIRLNGDLEEIQGKVKKLEEQVKSLQVKKSHLK
B2: GST-Cdc10 (natural protein)
chain: MDPLSSVQPASYVGFDTITNQIEHRLLKKGFQFNIMVVGQSGLGKSTLINTLFASHLIDSATGDDISALPVTKTTEMKISTHTLVEDRVRLNINVIDTPGFGDFIDNSKAWEPIVKYIKEQHSQYLRKELTAQRERFITDTRVHAILYFLQPNGKELSRLDVEALKRLTEIANVIPVIGKSDTLTLDERTEFRELIQNEFEKYNFKIYPYDSEELTDEELELNRSVRSIIPFAVVGSENEIEINGETFRGRKTRWSAINVEDINQCDFVYLREFLIRTHLQDLIETTSYIHYEGFRARQLIALKENANSRSSAHMSSNAIQR
B3: Cdc12(T48N)-His6 (natural protein)
chain: B1 chain with T48N
B4: His6-Cdc10 (natural protein)
chain: B2 chain
B5: His6-Cdc3 (natural protein)
chain: MSLKEEQVSIKQDPEQEERQHDQFNDVQIKQESQDHDGVDSQYTNGTQNDDSERFEAAESDVKVEPGLGMGITSSQSEKGQVLPDQPEIKFIRRQINGYVGFANLPKQWHRRSIKNGFSFNLLCVGPDGIGKTTLMKTLFNNDDIEANLVKDYEEELANDQEEEEGQGEGHENQSQEQRHKVKIKSYESVIEENGVKLNLNVIDTEGFGDFLNNDQKSWDPIIKEIDSRFDQYLDAENKINRHSINDKRIHACLYFIEPTGHYLKPLDLKFMQSVYEKCNLIPVIAKSDILTDEEILSFKKTIMNQLIQSNIELFKPPIYSNDDAENSHLSERLFSSLPYAVIGSNDIVENYSGNQVRGRSYPWGVIEVDNDNHSDFNLLKNLLIKQFMEELKERTSKILYENYRSSKLAKLGIKQDNSVFKEFDPISKQQEEKTLHEAKLAKLEIEMKTVFQQKVSEKEKKLQKSETELFARHKEMKEKLTKQLKALEDKKKQLELSINSASPNVNHSPVPTKKKGFLR

How the values were obtained:
Test in all cases: pull-down
[1] = target: T1, GST-Cdc12 (S. cerevisiae, UniProt P32468 1-407)
T1 sequence: B1 chain

[2] = target: T2, GST-HSL1(833-1518) (S. cerevisiae, UniProt P34244 833-1518)
T2 sequence: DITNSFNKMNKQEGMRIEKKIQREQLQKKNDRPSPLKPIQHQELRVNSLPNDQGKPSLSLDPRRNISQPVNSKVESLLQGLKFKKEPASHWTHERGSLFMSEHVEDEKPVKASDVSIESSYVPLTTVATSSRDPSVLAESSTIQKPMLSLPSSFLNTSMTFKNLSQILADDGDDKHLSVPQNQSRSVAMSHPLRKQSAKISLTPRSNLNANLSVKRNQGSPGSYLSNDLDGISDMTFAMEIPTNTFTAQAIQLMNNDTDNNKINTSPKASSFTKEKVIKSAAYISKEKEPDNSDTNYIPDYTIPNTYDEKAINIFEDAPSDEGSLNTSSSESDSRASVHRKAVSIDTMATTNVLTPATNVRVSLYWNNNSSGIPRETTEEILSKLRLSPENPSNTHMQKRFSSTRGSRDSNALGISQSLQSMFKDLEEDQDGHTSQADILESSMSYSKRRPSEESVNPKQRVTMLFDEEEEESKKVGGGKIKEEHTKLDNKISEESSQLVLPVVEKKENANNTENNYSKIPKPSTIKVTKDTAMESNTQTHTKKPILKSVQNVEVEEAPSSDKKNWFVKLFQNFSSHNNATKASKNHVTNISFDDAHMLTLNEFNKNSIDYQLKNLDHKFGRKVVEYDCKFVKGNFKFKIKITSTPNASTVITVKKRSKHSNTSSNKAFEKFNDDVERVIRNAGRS

[3] = target: T3, GST-Cdc3 (S. cerevisiae, UniProt P32457 1-520)
T3 sequence: B5 chain

[4] = target: T4, GST-Cdc11 (S. cerevisiae, UniProt P32458 1-415)
T4 sequence: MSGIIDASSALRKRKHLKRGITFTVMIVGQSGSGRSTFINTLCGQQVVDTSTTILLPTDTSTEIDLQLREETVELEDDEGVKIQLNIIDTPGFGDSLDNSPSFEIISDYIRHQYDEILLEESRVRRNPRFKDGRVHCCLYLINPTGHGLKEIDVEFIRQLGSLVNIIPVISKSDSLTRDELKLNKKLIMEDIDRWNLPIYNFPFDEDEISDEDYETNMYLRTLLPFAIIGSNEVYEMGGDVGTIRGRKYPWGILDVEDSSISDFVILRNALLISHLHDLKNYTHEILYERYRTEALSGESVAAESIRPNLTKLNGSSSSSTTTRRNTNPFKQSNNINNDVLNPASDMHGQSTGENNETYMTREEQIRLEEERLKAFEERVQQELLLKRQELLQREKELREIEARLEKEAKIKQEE

[5] = target: B3
[6] = target: B1
[7] = target: T3, GST-Cdc3; remark: listed apart in the source
[8] = target: T4, GST-Cdc11; remark: listed apart in the source
[9] = target: T5, GST-Cla4 (S. cerevisiae, UniProt P48562 1-842)
T5 sequence: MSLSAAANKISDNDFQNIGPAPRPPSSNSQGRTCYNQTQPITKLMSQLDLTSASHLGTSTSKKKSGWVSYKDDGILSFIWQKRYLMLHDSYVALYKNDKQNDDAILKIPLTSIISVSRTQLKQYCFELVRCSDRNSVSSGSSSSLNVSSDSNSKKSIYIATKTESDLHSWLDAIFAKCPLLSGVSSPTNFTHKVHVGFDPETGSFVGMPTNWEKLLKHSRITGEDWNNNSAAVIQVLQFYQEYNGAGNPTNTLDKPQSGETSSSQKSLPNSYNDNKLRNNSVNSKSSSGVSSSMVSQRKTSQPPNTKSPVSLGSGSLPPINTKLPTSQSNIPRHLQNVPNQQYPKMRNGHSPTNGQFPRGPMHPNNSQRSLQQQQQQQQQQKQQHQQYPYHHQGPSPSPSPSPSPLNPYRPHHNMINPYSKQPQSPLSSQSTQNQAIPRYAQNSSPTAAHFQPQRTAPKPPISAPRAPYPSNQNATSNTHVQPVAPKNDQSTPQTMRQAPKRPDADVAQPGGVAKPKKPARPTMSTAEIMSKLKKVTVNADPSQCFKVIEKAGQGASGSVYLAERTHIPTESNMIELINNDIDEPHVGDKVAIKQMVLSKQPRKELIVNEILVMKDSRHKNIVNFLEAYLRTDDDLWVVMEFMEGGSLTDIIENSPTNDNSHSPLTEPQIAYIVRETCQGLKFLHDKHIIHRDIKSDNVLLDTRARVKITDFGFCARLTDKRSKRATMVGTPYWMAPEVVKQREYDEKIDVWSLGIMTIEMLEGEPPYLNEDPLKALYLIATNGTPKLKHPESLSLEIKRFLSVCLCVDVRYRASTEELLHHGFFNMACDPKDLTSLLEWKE

Binder | binding result [1] | binding result [2] | binding result [9] | also measured
B1 | binds | binds | – | binding result [3]: binds; binding result [4]: binds
B2 | – | – | – | binding result [5]: binds; binding result [6]: binds
B3 | binds | binds | – | binding result [7]: binds; binding result [8]: binds
B4 | – | – | binds | –
B5 | – | – | binds | –
